Source: patent US20180118786A1 (published 2018)
Where two headings read alike, the source gives them in different places. Values belong to the binder of their own block, whether it stands above or below them. Starred links: 1 amine or outer side, 2 acyl side, 3 side chain; linkers in the order of their positions; H or OH if unused. Positions of bridges follow the written chain, without caps; N, C: chain ends. Non-standard residues stand in square brackets, D forms with d. No end group written: not given here. TATA = O=C(CC[*:1])N1CN(C(=O)CC[*:2])CN(C(=O)CC[*:3])C1; hLys = NCCCCC[C@H](N)C(=O)O

Key:
Assay in all cases: enzyme inhibition
[1] = biological target: T1, human β-FXIIa (HFXIIAB; Molecular Innovations) (human, UniProt P00748 354-362; P00748 373-615)
T1 chain 1: NGPLSCGQR
T1 chain 2: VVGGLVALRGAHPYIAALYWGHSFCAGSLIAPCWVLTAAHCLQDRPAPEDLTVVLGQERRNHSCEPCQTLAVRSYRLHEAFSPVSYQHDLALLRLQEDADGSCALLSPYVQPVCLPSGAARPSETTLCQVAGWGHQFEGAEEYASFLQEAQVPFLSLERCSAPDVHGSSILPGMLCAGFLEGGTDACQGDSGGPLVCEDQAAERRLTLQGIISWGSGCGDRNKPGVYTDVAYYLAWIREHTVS

[2] = biological target: T1, human β-FXIIa (HFXIIAB; Molecular …)
[3] = biological target: uPA (human, UniProt P00749 21-431)
[4] = biological target: factor XIa (human, UniProt P03951 19-625)
[5] = biological target: plasma kallikrein (human, UniProt P03952 20-638)
[6] = biological target: human tissue-plasminogen activator (human, UniProt P00750 36-562)
[7] = biological target: T2, factor VIIa (human, UniProt P08709 61-466)
T2 chain: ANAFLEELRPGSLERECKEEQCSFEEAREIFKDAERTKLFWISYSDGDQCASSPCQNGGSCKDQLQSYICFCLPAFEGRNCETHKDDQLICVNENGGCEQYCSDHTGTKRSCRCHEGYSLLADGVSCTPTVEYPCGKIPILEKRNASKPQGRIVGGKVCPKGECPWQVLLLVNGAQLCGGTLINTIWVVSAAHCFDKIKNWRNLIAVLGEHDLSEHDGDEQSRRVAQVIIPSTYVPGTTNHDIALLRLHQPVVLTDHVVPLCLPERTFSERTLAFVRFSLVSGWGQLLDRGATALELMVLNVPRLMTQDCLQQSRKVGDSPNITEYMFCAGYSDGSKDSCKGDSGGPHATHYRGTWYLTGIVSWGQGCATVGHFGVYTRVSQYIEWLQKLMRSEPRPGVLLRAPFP

[8] = biological target: thrombin (human, UniProt P00734 328-622)
[9] = biological target: T3, plasmin (human, UniProt P00747 97-810)
T3 chain: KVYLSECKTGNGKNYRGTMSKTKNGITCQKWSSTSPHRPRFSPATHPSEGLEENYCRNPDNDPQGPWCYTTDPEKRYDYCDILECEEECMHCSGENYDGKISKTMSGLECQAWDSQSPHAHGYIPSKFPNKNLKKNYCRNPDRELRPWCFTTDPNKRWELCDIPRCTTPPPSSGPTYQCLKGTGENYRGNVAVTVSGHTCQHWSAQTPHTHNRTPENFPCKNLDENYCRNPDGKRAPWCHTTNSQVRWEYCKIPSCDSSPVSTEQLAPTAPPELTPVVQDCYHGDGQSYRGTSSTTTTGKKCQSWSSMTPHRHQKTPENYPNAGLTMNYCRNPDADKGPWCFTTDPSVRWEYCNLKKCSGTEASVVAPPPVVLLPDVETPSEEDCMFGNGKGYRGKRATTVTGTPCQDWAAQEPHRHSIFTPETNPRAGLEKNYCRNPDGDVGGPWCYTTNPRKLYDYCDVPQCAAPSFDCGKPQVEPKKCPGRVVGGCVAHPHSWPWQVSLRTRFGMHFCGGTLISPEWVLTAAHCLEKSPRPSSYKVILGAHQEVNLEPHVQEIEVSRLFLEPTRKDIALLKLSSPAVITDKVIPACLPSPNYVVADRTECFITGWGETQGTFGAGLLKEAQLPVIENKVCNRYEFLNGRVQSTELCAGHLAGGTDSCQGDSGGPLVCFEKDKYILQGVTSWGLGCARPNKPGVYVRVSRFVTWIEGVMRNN

[10] = biological target: T4, factor Xa (human, UniProt P00742 41-179; P00742 235-488)
T4 chain 1: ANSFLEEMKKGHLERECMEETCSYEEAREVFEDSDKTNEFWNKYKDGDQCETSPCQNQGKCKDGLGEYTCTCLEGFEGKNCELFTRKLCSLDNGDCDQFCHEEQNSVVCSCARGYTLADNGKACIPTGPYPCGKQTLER
T4 chain 2: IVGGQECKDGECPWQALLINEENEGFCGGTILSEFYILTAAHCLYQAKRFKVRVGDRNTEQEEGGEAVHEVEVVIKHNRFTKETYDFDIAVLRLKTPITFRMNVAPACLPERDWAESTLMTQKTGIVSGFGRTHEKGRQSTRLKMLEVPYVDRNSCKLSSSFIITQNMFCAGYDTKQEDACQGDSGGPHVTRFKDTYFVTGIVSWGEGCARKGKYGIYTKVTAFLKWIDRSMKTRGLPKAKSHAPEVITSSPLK

Sequence of human tissue-plasminogen activator (P00750 36-562): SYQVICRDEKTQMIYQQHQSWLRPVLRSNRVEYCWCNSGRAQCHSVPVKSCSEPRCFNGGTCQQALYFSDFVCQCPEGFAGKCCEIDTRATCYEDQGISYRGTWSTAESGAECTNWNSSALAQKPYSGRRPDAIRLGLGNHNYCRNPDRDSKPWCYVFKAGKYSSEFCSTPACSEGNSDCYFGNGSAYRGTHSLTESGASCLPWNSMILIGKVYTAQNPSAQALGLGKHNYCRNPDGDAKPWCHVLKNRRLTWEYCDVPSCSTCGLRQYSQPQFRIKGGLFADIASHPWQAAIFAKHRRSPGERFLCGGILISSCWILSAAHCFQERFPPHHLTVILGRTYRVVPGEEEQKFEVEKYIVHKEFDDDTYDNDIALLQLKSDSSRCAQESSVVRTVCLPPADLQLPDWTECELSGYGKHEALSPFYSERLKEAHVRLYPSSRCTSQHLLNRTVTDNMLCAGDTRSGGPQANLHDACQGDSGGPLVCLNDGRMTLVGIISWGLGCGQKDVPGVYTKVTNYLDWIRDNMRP
Sequence of plasma kallikrein (P03952 20-638): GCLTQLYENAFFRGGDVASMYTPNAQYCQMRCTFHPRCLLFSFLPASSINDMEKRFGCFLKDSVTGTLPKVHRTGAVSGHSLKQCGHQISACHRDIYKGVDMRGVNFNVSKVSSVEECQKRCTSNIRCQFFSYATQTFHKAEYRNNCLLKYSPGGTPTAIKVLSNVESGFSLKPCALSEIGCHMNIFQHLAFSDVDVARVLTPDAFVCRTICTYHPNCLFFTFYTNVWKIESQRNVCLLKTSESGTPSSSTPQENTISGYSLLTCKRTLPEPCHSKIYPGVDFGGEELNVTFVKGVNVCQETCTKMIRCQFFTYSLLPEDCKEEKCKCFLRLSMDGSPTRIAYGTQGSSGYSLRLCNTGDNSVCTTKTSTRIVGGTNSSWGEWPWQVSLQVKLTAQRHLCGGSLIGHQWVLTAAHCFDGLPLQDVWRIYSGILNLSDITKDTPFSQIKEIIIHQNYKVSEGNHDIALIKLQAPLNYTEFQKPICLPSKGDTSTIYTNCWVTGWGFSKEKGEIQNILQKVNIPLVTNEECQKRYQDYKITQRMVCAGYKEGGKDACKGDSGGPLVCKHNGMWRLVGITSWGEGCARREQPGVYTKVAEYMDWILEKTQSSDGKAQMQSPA

Binder: RCFRLPCRQVRCR [Valine (25), Leu10]
Ki [1]: 830 nM

Binder: H-RCFRLPCRQLRCR-NH2 (linker 2-7-12 via TATA) [FXII618]
Ki [3]: > 50000 nM
Ki [4]: > 50000 nM
Ki [5]: > 50000 nM
Ki [6]: > 50000 nM
Ki [7]: > 50000 nM
Ki [8]: > 50000 nM
Ki [9]: > 50000 nM
Ki [10]: > 50000 nM

B4: peptide 26 (peptide 2, Leu10 to isoleucine) (peptide)
peptide: RCFRLPCRQIRCRW-NH2
modifications: linker 2-7-12 via TATA; N-terminus assumed
SMILES: CC[C@H](C)[C@@H]1NC(=O)[C@H](CCC(N)=O)NC(=O)[C@H](CCCNC(=N)N)NC(=O)[C@@H]2CSCCC(=O)N3CN(CN(C3)C(=O)CCSC[C@H](NC(=O)[C@@H](N)CCCNC(=N)N)C(=O)N[C@@H](Cc3ccccc3)C(=O)N[C@@H](CCCNC(=N)N)C(=O)N[C@@H](CC(C)C)C(=O)N3CCC[C@H]3C(=O)N2)C(=O)CCSC[C@@H](C(=O)N[C@@H](CCCNC(=N)N)C(=O)N[C@@H](Cc2c[nH]c3ccccc23)C(N)=O)NC(=O)[C@H](CCCNC(=N)N)NC1=O
Ki [1]: 199 nM

B5: FXII618 variant with R in position 1 replaced by homolysine (peptide)
peptide: [hLys]CFRLPCRQLRCR-NH2
modifications: linker 2-7-12 via TATA; N-terminus assumed
SMILES: CC(C)C[C@@H]1NC(=O)[C@H](CCC(N)=O)NC(=O)[C@H](CCCNC(=N)N)NC(=O)[C@@H]2CSCCC(=O)N3CN(CN(C3)C(=O)CCSC[C@H](NC(=O)[C@@H](N)CCCCCN)C(=O)N[C@@H](Cc3ccccc3)C(=O)N[C@@H](CCCNC(=N)N)C(=O)N[C@@H](CC(C)C)C(=O)N3CCC[C@H]3C(=O)N2)C(=O)CCSC[C@@H](C(=O)N[C@@H](CCCNC(=N)N)C(N)=O)NC(=O)[C@H](CCCNC(=N)N)NC1=O
Ki [2]: 18.5 nM

More lines, now with the values ahead:

Ki [2]: 177 nM
B1: peptide 66 (FXII618, Arg1 to alanine) (peptide)
peptide: ACFRLPCRQLRCR-NH2
modifications: linker 2-7-12 via TATA; N-terminus assumed
SMILES: CC(C)C[C@@H]1NC(=O)[C@H](CCC(N)=O)NC(=O)[C@H](CCCNC(=N)N)NC(=O)[C@@H]2CSCCC(=O)N3CN(CN(C3)C(=O)CCSC[C@@H](C(=O)N[C@@H](CCCNC(=N)N)C(N)=O)NC(=O)[C@H](CCCNC(=N)N)NC1=O)C(=O)CCSC[C@H](NC(=O)[C@H](C)N)C(=O)N[C@@H](Cc1ccccc1)C(=O)N[C@@H](CCCNC(=N)N)C(=O)N[C@@H](CC(C)C)C(=O)N1CCC[C@H]1C(=O)N2

Ki [2]: 231 nM
B2: peptide 64 (FXII618, Arg1 to isoleucine) (peptide)
peptide: ICFRLPCRQLRCR-NH2
modifications: linker 2-7-12 via TATA; N-terminus assumed
SMILES: CC[C@H](C)[C@H](N)C(=O)N[C@H]1CSCCC(=O)N2CN3CN(C2)C(=O)CCSC[C@H](NC(=O)[C@@H]2CCCN2C(=O)[C@H](CC(C)C)NC(=O)[C@H](CCCNC(=N)N)NC(=O)[C@H](Cc2ccccc2)NC1=O)C(=O)N[C@@H](CCCNC(=N)N)C(=O)N[C@@H](CCC(N)=O)C(=O)N[C@@H](CC(C)C)C(=O)N[C@@H](CCCNC(=N)N)C(=O)N[C@H](C(=O)N[C@@H](CCCNC(=N)N)C(N)=O)CSCCC3=O

Ki [2]: 287 nM
B3: peptide 65 (FXII618, Arg1 to valine) (peptide)
peptide: VCFRLPCRQLRCR-NH2
modifications: linker 2-7-12 via TATA; N-terminus assumed
SMILES: CC(C)C[C@@H]1NC(=O)[C@H](CCC(N)=O)NC(=O)[C@H](CCCNC(=N)N)NC(=O)[C@@H]2CSCCC(=O)N3CN(CN(C3)C(=O)CCSC[C@H](NC(=O)[C@@H](N)C(C)C)C(=O)N[C@@H](Cc3ccccc3)C(=O)N[C@@H](CCCNC(=N)N)C(=O)N[C@@H](CC(C)C)C(=O)N3CCC[C@H]3C(=O)N2)C(=O)CCSC[C@@H](C(=O)N[C@@H](CCCNC(=N)N)C(N)=O)NC(=O)[C@H](CCCNC(=N)N)NC1=O
